Experimental data as given in the RNAGym collection of RNA variant scans (doi:10.7554/elife.80360).

B1: Hammerhead Ribozyme (parent)
chain: ACCGGAUGUGCUUUCCGGUCUGAUGAGUCCGUGAGGACGAAACAG

Variants of: B1
Test: self-cleavage, relative activity (ratio to wild type); higher = more cleavage; co-transcriptional

Variant | self-cleavage
U9G G18C | 0.364
U9G U12G | 0.784
U9G U12A | 1.04
U9G U12C | 1.57
G10A C30A | 1.01
G10A C30G | 0.783
G10A C30U | 1.06
U9G A23U | 0.366
U9G A23G | 0.385
U9G A23C | 0.448
G10C C15U | 1.01
G10C C15A | 0.591
G10C C15G | 0.524
G10C U19G | 0.353
G10C U19C | 0.503
G10C U19A | 0.317
U9G U14A | 0.916
U9G U14G | 0.991
U9G U14C | 0.41
G10C A41G | 0.392
G10C A41U | 0.358
G10C A41C | 0.299
G10C A34C | 0.424
G10C A34G | 0.841

Variant | self-cleavage
G10C A34U | 0.934
U9G A40G | 0.366
U9G A40U | 0.304
U9G A40C | 0.423
G10A G22C | 0.32
G10A G22U | 0.319
G10A G22A | 0.352
U9G C38U | 0.876
U9G C38G | 0.486
U9G C38A | 0.671
U9G G45U | 0.454
U9G G45C | 0.462
U9G G45A | 0.426
G10A A40C | 0.676
G10A A40G | 0.346
G10A A40U | 0.298
G10A C11G | 1.35
G10A C11U | 1.38
G10A C11A | 1.09
G10A U21G | 0.462
G10A U21A | 0.588
G10A U21C | 0.815
G10C A23C | 0.538
G10C A23U | 0.447

Variant | self-cleavage
G10C A23G | 0.309
G10C C20G | 0.4
G10C C20A | 0.336
G10C C20U | 0.487
G10C U13G | 1.24
G10C U13C | 1.03
G10C U13A | 1.03
G10C A44G | 1.44
G10C A44C | 0.61
G10C A44U | 0.57
G10C G33A | 1.14
G10C G33C | 0.937
G10C G33U | 0.934
G10A G31A | 1.08
G10A G31U | 0.938
G10A G31C | 1.16
G10C A37C | 1.21
G10C A37U | 0.576
G10C A37G | 0.958
G10A G27U | 0.431
G10A G27C | 0.701
G10A G27A | 0.94
G10C A26G | 0.304
G10C A26C | 0.447

Variant | self-cleavage
G10C A26U | 0.851
G10A C38A | 0.814
G10A C38U | 1.33
G10A C38G | 0.751
G10A G36U | 0.632
G10A G36A | 0.742
G10A G36C | 0.843
G10A G45C | 0.93
G10A G45A | 0.9
G10A G45U | 0.767
G10C G39A | 0.368
G10C G39U | 0.307
G10C G39C | 0.324
G10C C43G | 0.381
G10C C43U | 0.524
G10C C43A | 0.354
G10A A26C | 0.666
G10A A26U | 0.925
G10A A26G | 0.353
G10A C43U | 0.605
G10A C43A | 0.295
G10A C43G | 0.406
U9G G31U | 0.51
U9G G31C | 0.754

Variant | self-cleavage
U9G G31A | 1.14
G10A C15A | 0.927
G10A C15G | 0.899
G10A C15U | 0.919
U9G U19C | 0.329
U9G U19G | 0.343
U9G U19A | 0.376
G10C C38A | 0.79
G10C C38G | 0.582
G10C C38U | 1.16
G10A A41G | 0.359
G10A A41C | 0.306
G10A A41U | 0.386
U9G G10U | 1.05
U9G G10A | 0.891
U9G G10C | 0.987
U9G A41G | 0.303
U9G A41C | 0.294
U9G A41U | 0.306
U9G A34C | 0.579
U9G A34G | 1.04
U9G A34U | 0.631
G10C G18U | 0.746
G10C G18C | 0.614

Variant | self-cleavage
G10C G18A | 1.06
U9G A42U | 0.28
U9G A42G | 0.323
U9G A42C | 0.303
G10C U24G | 1.06
G10C U24C | 0.853
G10C U24A | 0.811
G10U A26G | 0.317
G10U A26U | 0.873
G10U A26C | 0.439
U9G G39U | 0.319
U9G G39C | 0.33
U9G G39A | 0.307
G10A U13A | 1.72
G10A U13G | 0.956
G10A U13C | 1.39
G10C G27C | 0.994
G10C G27A | 0.887
G10C G27U | 0.555
U9G | 0.989
G10C C29G | 0.638
G10C C29A | 0.678
G10C C29U | 1.44
U9G A44G | 1.07

Variant | self-cleavage
U9G A44U | 0.388
U9G A44C | 0.39
G10C U28A | 0.381
G10C U28G | 0.38
G10C U28C | 1.01
U9G C30A | 0.677
U9G C30U | 1.26
U9G C30G | 0.898
G10A U12C | 1.38
G10A U12G | 1.51
G10A U12A | 0.985
U9G G25A | 0.205
U9G G25C | 0.383
U9G G25U | 0.242
U9G U13G | 0.802
U9G U13C | 1.04
U9G U13A | 1.93
U9G G36C | 0.593
U9G G36A | 0.57
U9G G36U | 0.569
U9G C29U | 0.713
U9G C29A | 0.655
U9G C29G | 0.534
